The subject of data set [1] is Tetracycline aptamer, RNA-MaP condition construct (RNA, aptamer) GGAAAGGCGCUAAAACAUACCAGUUCGCUGGAGAGGUGAAGAAUACGACCACCUAGCGCCAAAGAAACAACAACAACAAC
Put plainly: 1M7 chemical mapping. The conditions noted are these: 80 mM KCl, 4 mM MgCl2; 100 mM Tris-HCl, pH 7.5, 37 °C.

Data set [2] deals with Tetracycline aptamer, Light-up construct (RNA, aptamer) GGGAACGUCUCCGAGUAGGAGACGAAGGGAGAGUGGCAGCUUACAACGCUAAAACAUACCUGCACCACCGACCUUGAAAACAAGGGUAACGAAUGUGGAGCAGGAGAGGUGAAGAAUACGACCACCUAGCGAAGUGGGCUGUUGCUUUUCCAAGCUUAUCGAGUAGAUAAGCAAAAAGAAACAACAACAACAAC
In words: DMS chemical mapping. The conditions noted are these: 5 mM MgCl2, 1x PBS, pH 6.1, 24 °C.

Data set [3] has as its system BH_E029 (RNA, aptamer) GGGAGAGUGGCAGCUUACAACGUAACGAUGCGGCCGCCACUGAUCCGACUGGUUAACAGAAAGUCCUGACCAGGUAACGAAUGGUCAGGACCGGGCAUUGUUACGAAGUGGGCUGUUGCUUUUCC
Put plainly: light-up fluorescence kinetics. The conditions noted are these: 5 mM MgCl2, 1x PBS, pH 6.1, with tryptophan (ON state).

Data set [4] deals with FMN aptamer, RNA-MaP condition construct (RNA, aptamer) GGAAAGGCGUGUAGGAUAUGCUUCGGCAGAAGGACACGCCAAAGAAACAACAACAACAAC
Put plainly: 1M7 chemical mapping. The conditions noted are these: 80 mM KCl, 4 mM MgCl2; 100 mM Tris-HCl, pH 7.5, 37 °C.

Data set [5] has as its system FMN aptamer, Light-up construct (RNA, aptamer) GGGAACGUCUCCGAGUAGGAGACGAAGGGAGAGUGGCAGCUUACAAUUCCAGCCGACCACUGAAAUACUCUAGAGGAUAUGACAGACAAAGUCUGUCAGAAGGCUAGAGCAGUGGGUAACGAAUGCUGGAAAAGUGGGCUGUUGCUUUUCCAAGCUUAUCGAGUAGAUAAGCAAAAAGAAACAACAACAACAAC
Put plainly: DMS chemical mapping. The conditions noted are these: 5 mM MgCl2, 1x PBS, pH 6.1, 24 °C.

For data set [6], the system named is BC_JL-sng2-3.09 (RNA, aptamer) GGGUAUGUCGCAGAAGUAGCUAUCGGAGGAUAUUCAUACCGGAAACGGACAUGAGGAUCACCCAUGUGGCGAAAGCCUUGGGAGAAGGCUGAUAGCUACAACUGCGACAUACCCAAAAAAAAAAAAAAAAAAAAAAAAA
Put plainly: flow cytometry of RNA beads with MS2 protein; DMS chemical mapping. The conditions noted are these: RNA immobilised on beads; reversible over 80 FMN buffer exchanges.

Data set [7] concerns the target T1, MS2 coat protein, dlFG mutant (Escherichia phage MS2, UniProt P03612, del68-81insG). Put plainly: 4 mM Mg2+; no ligand; RNA-MaP array; 100 mM Tris-HCl pH 7.5, 80 mM KCl, 4 mM MgCl2, 0.1 mg/mL BSA, 1 mM DTT, 0.01 mg/mL yeast tRNA, 0.01% Tween-20; protein 1.5 nM to 3 uM; 37 C (Table S3). The conditions noted are these: chain copies: 2; label: tethered by stalled RNA polymerase.

Data set [8] has as its target T1, MS2 coat protein, dlFG mutant. In words: 4 mM Mg2+; FMN 200 uM; RNA-MaP array; 100 mM Tris-HCl pH 7.5, 80 mM KCl, 4 mM MgCl2, 0.1 mg/mL BSA, 1 mM DTT, 0.01 mg/mL yeast tRNA, 0.01% Tween-20; protein 1.5 nM to 3 uM; 37 C (Table S3). The conditions noted are these: chain copies: 2; label: tethered by stalled RNA polymerase.
Data set [9] has the same target. Put plainly: 4 mM Mg2+; L-tryptophan 2.4 mM; RNA-MaP array; 100 mM Tris-HCl pH 7.5, 80 mM KCl, 4 mM MgCl2, 0.1 mg/mL BSA, 1 mM DTT, 0.01 mg/mL yeast tRNA, 0.01% Tween-20; protein 1.5 nM to 3 uM; 37 C (Table S3). The conditions noted are these: chain copies: 2; label: tethered by stalled RNA polymerase.

A value given as a limit tells only on which side of the number the result lay.

With `CN(C)[C@@H]1C(=O)C(C(N)=O)=C(O)[C@@]2(O)C(=O)C3=C(O)c4c(O)cccc4[C@@](C)(O)[C@H]3C[C@@H]12`, the Kd (commonly the concentration at which binding is half-saturated) in data set [1] is listed as 622.07 ± 132.12/-105.63 nM; in [2] it was 57.50 ± 22.58/-15.88 nM. Consider `CN(C)c1ccc(C(=C2C=CC(=[N+](C)C)C=C2)c2ccccc2)cc1`, for which the binding entry in [3] was “yes”. As for `Cc1cc2nc3c(=O)[nH]c(=O)nc-3n(C[C@H](O)[C@H](O)[C@H](O)COP(=O)(O)O)c2cc1C`, the figures for the Kd in data set [4] and in [5] were 1.71 ± 0.60/-0.44 μM and 1.57 ± 0.58/-0.41 μM, respectively. Moreover, the binding result in [6] is “yes”.

B1: Eterna 7681146 (Same State - Arginine A) (ssRNA)
RNA: ACUGGGUUGACGAAAGUCAACAAAAGAGAAGGAGCGCACGAAAGUGCAGGUAGGUCGCUCAUCCAGUGAUGUUGGAUCAUCCAGA
The molecule B1 returned a Kd in data set [7] of more than 3000 nM.

B2: Eterna 7752556 (Exclusion - Arginine B) (ssRNA)
RNA: UUAGUCUAGAGAAGGAGCGAGUGAUGUUCGCAUGCUAUGAUGAAUUCAUCAUAGUUUAAUCCUCAGGUAGGUCGCUCUAGACAUU
In data set [7], B2 registered a dissociation constant Kd of more than 3000 nM.

B3: Eterna 6391704 (Inverted Exclusion NG 3) (ssRNA)
RNA: AGCUGGUGACAGCAUCCAUCUUAACAUGAGGAUCACCCAUGUAGAAGGCUGUACGGUUACCGUACAGAGGAUAUACAUAGAUGG
As for B3, the affinity in data set [8], expressed as Kd, was 9.28 nM.

B4: Eterna 6402672 (Exclusion NG 2) (ssRNA)
RNA: UGGCCCGCCGGAGGAUAUCUACUCUGUGGUGCACUGCGUUUGCAAUACAUGAGGAUCACCCAUGUAGAGAAGGCCGAGGGCACA
As for B4, binding in data set [7] was put at a Kd of 269 nM.

B5: Eterna 7616241 (Exclusion - Tryptophan A) (ssRNA)
RNA: AAUGUAUGCCACAUGAGGAUCACCCAUGUGCGAGGACCGGUACGGCCGCCACUCGGUCGGUGGUUAAUGAAGAUAUACAAUAAUG
Consider B5, for which binding in data set [9] was characterised by a dissociation constant (Kd) of 15.5 nM.

B6: Eterna 7671436 (Same State - Theophylline A) (ssRNA)
RNA: UGGACCUGACUCGAUAAGAGUCAAGGAGAUACCAGCCACGAAAGUGGCCCUUGGCAGCUCUGCCAGUGAUGUUGGUCAAGGUCCU
With B6, the dissociation constant Kd in [7] is more than 3000 nM.

B7: Eterna 7726098 (Exclusion - FMN A) (ssRNA)
RNA: AAGUGAUGUUGUAGUGAUGUUGUGAUGUUGCAGGAUAUAUAGUGAUGUAGAAGGGUAAGUACUUAUUUUUUUUUUGAGUUAUGUU
Take B7: in [7], the dissociation constant Kd is more than 3000 nM.

B8: Eterna 6449046 (Small Loop Same State NG 1) (ssRNA)
RNA: AAUAAACACACAGGAUAUAGCAUCGUCGUUGCGAACUUAGCGACGACGAUGCUAGAAGGGUGAACACAUGAGGAUCACCCAUGU
B8 yielded a Kd in data set [7] of 195 nM.

B9: Eterna 7675419 (Same State - Tryptophan A) (ssRNA)
RNA: UUUAAACAUAGUGAUGUUAUGUAACAAUGACGAGGACCGGUACGGCCGCCACUCGAGAGAGAUGAUGGUAAAAUAAAUAAUUUUC
B9 returned a dissociation constant (Kd) in [7] of more than 3000 nM.

B10: Eterna 1165 (Exclusion - Theophylline B) (ssRNA)
RNA: CCAAGCGUCAGCGAUACCAGAAUUCUAGUGAUGUUAGGUUCUGUCAUUGUACUAGCAGUGUUCCCUUGGCAGCGCGUGAUAGGCA
For B10, in data set [7], the dissociation constant (Kd) is more than 3000 nM.

B11: Eterna 1206 (Exclusion - Tryptophan A) (ssRNA)
RNA: CUAUAGACCCUUCGGAUAGUGAUGUUGUCACGAGGACCGGUACGGCCGCCACUCGCUGCCACCAUACCGCUUCACGGAACGAGCA
In [7], B11 showed a Kd of more than 3000 nM.

B12: Eterna 7759081 (Exclusion - Theophylline A) (ssRNA)
RNA: AACUGUCAAGGACAACAUUACUGAGGUGAUACCAGCAUCGAAAGAUGCCCUUGGCAGCGCCAACUUGCAGUGAUGUUGCAAGUAA
In turn, B12 yielded a Kd in data set [7] of more than 3000 nM.

B13: Eterna 6121097 (Same State NG 1) (ssRNA)
RNA: CGCUGUCACGCAGGAUAUGCAUUGGAUUACAAUGCAGAAGGGCGAUUACAUGAGGAUCACCCAUGUGUCGACAGUGAAGAAGAG
As for B13, in [7], the affinity, expressed as Kd, was 532 nM.
